These are literature values, as cited in article PMC11574045, “A cofactor-induced repressive type of transcription factor condensation can be induced by synthetic peptides to suppress tumorigenesis” (The EMBO Journal, 2024).

By Kd is commonly meant the constant that tells how readily two partners part at equilibrium.

For the data set, the target named is VGLL4 (Homo sapiens) (UniProt Q14135). Particulars: cited from earlier work.
VGLL4 (Homo sapiens), sequence (Q14135 whole entry): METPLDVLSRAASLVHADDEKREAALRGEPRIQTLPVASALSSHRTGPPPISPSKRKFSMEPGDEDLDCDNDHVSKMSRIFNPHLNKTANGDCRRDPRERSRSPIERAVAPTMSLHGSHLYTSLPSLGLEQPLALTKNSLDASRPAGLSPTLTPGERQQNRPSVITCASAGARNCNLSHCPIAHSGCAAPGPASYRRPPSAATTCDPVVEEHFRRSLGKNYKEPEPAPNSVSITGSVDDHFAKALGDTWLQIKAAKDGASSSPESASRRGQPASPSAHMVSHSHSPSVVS

TEAD4, sequence (Q15561 whole entry): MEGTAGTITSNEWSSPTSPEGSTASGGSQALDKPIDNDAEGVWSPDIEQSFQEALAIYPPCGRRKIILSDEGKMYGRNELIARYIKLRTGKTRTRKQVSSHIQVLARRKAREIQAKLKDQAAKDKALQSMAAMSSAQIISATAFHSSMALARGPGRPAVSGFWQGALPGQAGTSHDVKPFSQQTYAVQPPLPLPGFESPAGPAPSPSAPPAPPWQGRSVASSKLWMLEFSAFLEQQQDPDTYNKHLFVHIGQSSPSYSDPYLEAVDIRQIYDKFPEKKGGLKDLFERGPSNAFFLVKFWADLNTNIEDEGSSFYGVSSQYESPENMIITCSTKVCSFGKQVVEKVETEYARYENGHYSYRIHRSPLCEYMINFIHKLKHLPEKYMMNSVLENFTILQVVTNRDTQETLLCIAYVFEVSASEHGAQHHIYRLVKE

Turning to TEAD4 (from UniProt Q15561), the dissociation constant (Kd) was 6.8 nM.
